# Where a chain is given by its changes, count along the chain named. In names and notes the source's numbering stands.
# T1: RAP-IDU (fusion of RAP and human α-L-iduronidase) (human, UniProt P35475 28-653, limits assumed)
# T1 construct: iduronidase served as reporter
# T1 sequence: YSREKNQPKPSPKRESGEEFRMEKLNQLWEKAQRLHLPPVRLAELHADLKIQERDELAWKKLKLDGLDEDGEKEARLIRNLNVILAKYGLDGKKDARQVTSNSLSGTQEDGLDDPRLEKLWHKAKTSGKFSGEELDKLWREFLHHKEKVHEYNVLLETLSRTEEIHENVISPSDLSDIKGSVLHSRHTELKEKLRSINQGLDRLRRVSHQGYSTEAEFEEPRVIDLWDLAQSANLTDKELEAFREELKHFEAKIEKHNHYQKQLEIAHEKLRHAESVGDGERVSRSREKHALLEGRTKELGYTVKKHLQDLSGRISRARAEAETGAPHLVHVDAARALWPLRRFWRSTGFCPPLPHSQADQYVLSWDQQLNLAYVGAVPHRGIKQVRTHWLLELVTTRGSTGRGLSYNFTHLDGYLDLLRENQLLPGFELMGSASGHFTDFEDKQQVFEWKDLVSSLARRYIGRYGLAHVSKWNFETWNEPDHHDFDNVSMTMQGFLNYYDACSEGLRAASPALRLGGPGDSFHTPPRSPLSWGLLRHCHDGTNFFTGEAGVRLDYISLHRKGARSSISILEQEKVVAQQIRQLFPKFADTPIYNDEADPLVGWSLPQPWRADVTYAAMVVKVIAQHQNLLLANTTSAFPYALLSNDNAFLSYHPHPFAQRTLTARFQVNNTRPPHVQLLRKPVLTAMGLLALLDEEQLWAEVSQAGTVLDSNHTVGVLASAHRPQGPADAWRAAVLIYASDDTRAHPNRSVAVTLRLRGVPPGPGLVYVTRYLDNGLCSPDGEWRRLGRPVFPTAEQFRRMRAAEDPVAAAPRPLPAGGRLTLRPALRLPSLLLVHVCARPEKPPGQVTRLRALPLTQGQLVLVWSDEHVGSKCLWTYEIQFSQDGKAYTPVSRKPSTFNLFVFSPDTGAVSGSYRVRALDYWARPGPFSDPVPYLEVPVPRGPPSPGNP
# B1: LRP6 CR12 (receptor, human, UniProt O75581 1247-1322, looked up)
# chain: PTCSPQQFTCFTGEIDCIPVAWRCDGFTECEDHSDELNCPVCSESQFQCASGQCIDGALRCNGDANCQDKSDEKNC
# notes: range 1247-1322; also called L6 CR12; not shown: N-terminal hexahistidine and S-peptide from pET30(+)a
# B2: VLDLR CR6-8 (receptor)
# chain: not shown
# notes: range 235-358; also called V CR6-8; not shown: N-terminal hexahistidine and S-peptide from pET30(+)a
# B3: LRP6 CR1-3 (receptor, human, UniProt O75581 1247-1363, looked up)
# chain: PTCSPQQFTCFTGEIDCIPVAWRCDGFTECEDHSDELNCPVCSESQFQCASGQCIDGALRCNGDANCQDKSDEKNCEVLCLIDQFRCANGQCIGKHKKCDHNVDCSDKSDELDCYPT
# notes: range 1247-1363; also called L6 CR1-3; not shown: N-terminal hexahistidine and S-peptide from pET30(+)a
# B4: LRP2 CR89 (receptor)
# chain: not shown
# notes: domain: CR8 and CR9; also called YVWR; L2 CR89; not shown: N-terminal hexahistidine and S-peptide from pET30(+)a
# B5: RAP d3 E217K (ligand)
# chain: LDRLRRVSHQGYSTEAKFEEPRVIDLWDLEQSANLTDKELEAFREELKHFEAKIEKHNHYQKQLEIAHEKLRHAESVGDGERVSRSREKHALLEGRTKELGYTVKKHLQDLSGRISRAR
# notes: forward mutant of wild-type RAP d3; also called RAP E217K; not shown: vector-encoded N-terminal tags of pET30(+)a
# B6: RAP d3 E251K (ligand)
# chain: B5 chain with K17E, E51K
# notes: forward mutant of wild-type RAP d3; also called RAP E251K; not shown: vector-encoded N-terminal tags of pET30(+)a
# B7: RAP d3 E251K, K270E (ligand)
# chain: B5 chain with K17E, E51K, K70E
# notes: forward mutant of wild-type RAP d3; also called RAP E251K, K270E; not shown: vector-encoded N-terminal tags of pET30(+)a
# B8: RAP d3 E251K, K256A, K270E (ligand)
# chain: B5 chain with K17E, E51K, K56A, K70E
# notes: forward mutant of wild-type RAP d3; also called RAP E251K, K256A, K270E; not shown: vector-encoded N-terminal tags of pET30(+)a
# B9: RAP d3 K270E (ligand)
# chain: B5 chain with K17E, K70E
# notes: forward mutant of wild-type RAP d3; also called RAP K270E; not shown: vector-encoded N-terminal tags of pET30(+)a
# B10: RAP d3 H249Y (ligand)
# chain: B5 chain with K17E, H49Y
# notes: forward mutant of wild-type RAP d3; also called RAP H249Y; not shown: vector-encoded N-terminal tags of pET30(+)a
# B11: RAP d3 K256A, K270E (ligand)
# chain: B5 chain with K17E, K56A, K70E
# notes: forward mutant of wild-type RAP d3; also called RAP K256A, K270E; not shown: vector-encoded N-terminal tags of pET30(+)a
# Target: T1, RAP-IDU (fusion of RAP and human …)
# Experiment: solid-phase assay: CR protein coated on the plate, RAP-IDU titrated, bound iduronidase activity read as rfu
# Method: Initially, the binding of wild-type RAP to each CR pair or triplet was measured by solid-phase assay. Purified, refolded CR proteins were bound to Maxisorp plates during overnight incubation at 4° C. CR-loaded wells were blocked by resuspending in TBS Superblock (Pierce) supplemented with 5 mM CaCl2 (blocking buffer) and incubating for 1 hour at room temperature. Blocking buffer was removed and wells were washed once in TBS supplemented with 5 mM CaCl2 and 0.05% Tween-20 (wash buffer). Washed wells were incubated with 10 nM purified RAP-IDU (Tanimoto, et al., (2005) Br J Cancer 92, 278-283) for 2 hours at room temperature in blocking buffer. […] Wells were washed four times with wash buffer and resuspended in acidic PBS pH 5.6 supplemented with 200 μg/mL BSA (assay buffer). Iduronidase activity was measured as described previously using the fluorescent substrate 4-MU-α-L-iduronide (Tanimoto, et al., (2005) Br J Cancer 92, 278-283). No binding of RAP-IDU to empty wells was measured. […] RAP bound more weakly to other CR proteins, with dissociation constants from 30 to over 1000 nM.
row,Kd [nM],Binder
1,> 1000,B1
2,170,B2
3,328,B3
4,29,B4

# Target: T2, LRP1 CR3-5 (human)
# T2 construct: range 852-973; Amplified from human cDNA; also called L1 CR3-5
# T2 sequence (Q07954 852-973): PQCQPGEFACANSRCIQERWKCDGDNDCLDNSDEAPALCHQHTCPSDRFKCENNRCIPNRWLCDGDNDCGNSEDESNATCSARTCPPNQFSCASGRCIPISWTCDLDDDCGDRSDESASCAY
# Experiment: solid-phase assay, coated CR protein, anti-RAP, OD450
# Method: (§1) Percent of maximum binding is the ratio of the OD at the highest concentration tested for each ligand and the highest OD measured for all such ligands at that concentration.
# (§2) Solid phase binding assays-Purified, refolded CR protein (1 μg) was bound to Nunc Maxisorp™ 96-well plates in TBS pH 8 supplemented with 5 mM CaCl₂ (TBSC) overnight at 4° C. Wells were washed with TBSC and then blocked with TBSC containing 2% bovine serum albumin (BSA). RAP ligands were then incubated with the immobilized receptor at a range of concentrations for 2 hours in the above blocking buffer supplemented with 0.05% Tween-20 at room temperature. Control wells contained no added ligand. As an additional control, to determine whether the absence of calcium affected binding, 10 mM EGTA was included in the incubation medium for some samples. Wells were washed with TBSTC and bound ligands detected with polyclonal anti-RAP (BP41/42, 1:1,000, BioMarin). Excess primary antibody was removed and wells washed before incubation with the secondary antibody, HRP-conjugated goat anti rabbit IgG (Bio-Rad). After washing, TMB substrate solutions (Bio-Rad) were added to detect HRP. Color development was stopped with 1N HCl. Absorption at 450 nm was measured with a microplate spectrophotometer (Molecular Devices). Data were plotted and Kd values derived by non-linear regression with the assumption of single-site binding (GraphPad Prism).
# (§3) Next, binding of RAP d3 and RAPv2A d3 proteins to LRP1 CR3-5 and LRP2 CR89 was assessed. In order to understand the relative contributions of each RAPv2A d3 mutation to differences in affinity, we also prepared a number of RAPv2A d3 revertants and RAP d3 forward mutants, all comprising sequence variants intermediate between RAPv2A d3 and wild-type RAP d3 (FIGS. 7A and B, Table 1). Samples were tested in triplicate and experiments were repeated at least once. Values from different experiments were combined and a single mean and standard deviation obtained for each concentration of ligand tested.
% max (percent of maximum binding) [%],Kd [nM],Binder
91,9,B5
100,7,B6
4,–,B7
2,–,B8
4,–,B9
90,28,B10
2,–,B11

# Target: B4
# Experiment: as above
# Method: as §1, §2, §3
% max (percent of maximum binding) [%],Kd [nM],Binder
5,–,B5
5,–,B6
2,–,B7
40,114,B8
2,–,B9
2,–,B10
3,–,B11

# Target: B4
# Experiment: solid-phase binding assay: CR protein coated on the plate, ligand titrated, anti-RAP polyclonal and HRP secondary, OD 450 nm
# Method: as §2
# as §3, with “tested. OD values from uncoated wells, receptor-coated wells incubated with buffer alone, and uncoated wells incubated with the highest ligand concentration all gave similar values for all conditions tested. All OD values were corrected by subtracting the OD obtained from uncoated wells.” for “tested.”
row,binding result,Binder
1,no binding (tested: 100 nM),B5
2,no binding (tested: 100 nM),B6
3,no binding (tested: 100 nM),B7
4,no binding (tested: 100 nM),B9
5,no binding (tested: 100 nM),B10
6,no binding (tested: 100 nM),B11

# Source: patent US20090269346A1 (RAPTOR PHARMACEUTICAL, published 2009)
